From the supplement of paper PMC10567573

B1: FADS1 (parent)
chain: LNFQIEHHLFPTMPRHNYHKVAPL

Variants of: B1
Assay: protein stability index of a GFP-peptide fusion (GPS, HEK-293T) (PSI 1-6); higher = more stable
Conditions: c terminus: a fixed tail appended
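Further: lentivirally expressed fusions sorted by FACS into six bins by GFP to DsRed ratio, PSI derived from sequencing read proportions per bin multiplied by bin number.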

Variant	protein stability index
LNFQIEHHLFPTMPRHNYHKVSPL	2.91
LNFQIEHHLFPTMPCHNYHKVAPL	3.14
LNFQIEHHLFPTMPIHNYHKVAPL	2.88
LNFQIEHHLFPTMPNHNYHKVAPL	2.43
LNFQIEHHLFPTMPTHNYHKVAPL	2.55
LNFQIEHHLFPTMPEHNYHKVAPL	1.81
LNFQIEHHLFPTMPSHNYHKVAPL	2.95
LNFQIEHHLFPTMPGHNYHKVAPL	3.15
LNFQIEHHLFPTMPQHNYHKVAPL	1.33
LNFQIYHHLFPTMPRHNYHKVAPL	2.06
LNFQIGHHLFPTMPRHNYHKVAPL	1.77
LNFQIWHHLFPTMPRHNYHKVAPL	2.57
LNFQIRHHLFPTMPRHNYHKVAPL	2.07
LNFQILHHLFPTMPRHNYHKVAPL	2.27
LNFQIKHHLFPTMPRHNYHKVAPL	2.21
LNFQFEHHLFPTMPRHNYHKVAPL	2.87
LNFQMEHHLFPTMPRHNYHKVAPL	1.63
LNFQKEHHLFPTMPRHNYHKVAPL	2.06
LNFQLEHHLFPTMPRHNYHKVAPL	2.35
LNFQWEHHLFPTMPRHNYHKVAPL	1.43
LNFQPEHHLFPTMPRHNYHKVAPL	2.14
LNFQEEHHLFPTMPRHNYHKVAPL	2.1
LNFQNEHHLFPTMPRHNYHKVAPL	2.52
LNFQVEHHLFPTMPRHNYHKVAPL	2.73

Variant	protein stability index
LNFQREHHLFPTMPRHNYHKVAPL	2.27
LNFQDEHHLFPTMPRHNYHKVAPL	2.4
LNFQIEHHLFPTMPRHNYHCVAPL	2.2
LNFQIEHHLFPTMPRHNYHEVAPL	1.94
LNFQIEHHLFPTMPRHNYHTVAPL	1.79
LNFQIEHHLFPTMPRHNYHAVAPL	1.9
LNFQIEHHLFPTMPRHNYHNVAPL	2.58
LNFQIEHHLFPTMPRHNYHRVAPL	2.76
LNFQIEHHLFPTMPRHNYHVVAPL	1.2
LNFQIEHHLFPTMPRHNYHLVAPL	3.03
LNFQIEHHLFPTMPRHNYHIVAPL	2.65
LNFQIEHHLFPTMPRHNYHMVAPL	2.3
LNFQIEHHLFPTMPRHNYHPVAPL	2.71
LNFQIEHHLFNTMPRHNYHKVAPL	2.27
LNFQIEHHLFFTMPRHNYHKVAPL	2.77
LNFQIEHHLFVTMPRHNYHKVAPL	2.17
LNFQIEHHLFGTMPRHNYHKVAPL	1.9
LNFQIEHHLFDTMPRHNYHKVAPL	3.83
LNFQIEHHLFWTMPRHNYHKVAPL	3.17
LNFQIEHHLFETMPRHNYHKVAPL	2.56
VNFQIEHHLFPTMPRHNYHKVAPL	2.18
MNFQIEHHLFPTMPRHNYHKVAPL	1.63
FNFQIEHHLFPTMPRHNYHKVAPL	3.4
RNFQIEHHLFPTMPRHNYHKVAPL	2.48

Variant	protein stability index
ENFQIEHHLFPTMPRHNYHKVAPL	2.29
PNFQIEHHLFPTMPRHNYHKVAPL	2.26
WNFQIEHHLFPTMPRHNYHKVAPL	3.02
SNFQIEHHLFPTMPRHNYHKVAPL	1.84
LNFQIEHHLFPTMPRHNMHKVAPL	2.18
LNFQIEHHLFPTMPRHNDHKVAPL	1.44
LNFQIEHHLFPTMPRHNQHKVAPL	2.17
LNFQIEHHLFPTMPRHNTHKVAPL	2.27
LNFQIEHHLFPTMPRHNPHKVAPL	2.99
LNFQIEHHLFPTMPRHNFHKVAPL	2.72
LNFQIEHHLFPTMPRHNKHKVAPL	2.25
LNFQIEHHLFPTMPRHNIHKVAPL	2.23
LNFQIEQHLFPTMPRHNYHKVAPL	2.45
LNFQIEWHLFPTMPRHNYHKVAPL	3.85
LNFQIEMHLFPTMPRHNYHKVAPL	2.96
LNFQIEHDLFPTMPRHNYHKVAPL	2.14
LNFQIEHTLFPTMPRHNYHKVAPL	2.26
LNFQIEHKLFPTMPRHNYHKVAPL	1.93
LNFQIEHILFPTMPRHNYHKVAPL	3.23
LNFQIEHWLFPTMPRHNYHKVAPL	2.58
LNFQIEHVLFPTMPRHNYHKVAPL	1.5
LNFQIEHLLFPTMPRHNYHKVAPL	2.44
LNFQIEHGLFPTMPRHNYHKVAPL	1.58
LNFQIEHYLFPTMPRHNYHKVAPL	2.57

Variant	protein stability index
LNFQIEHELFPTMPRHNYHKVAPL	3.1
LNFQIEHHLFPTMPRHNYHKKAPL	1.83
LNFQIEHHLFPTMPRHNYHKIAPL	3.07
LNFQIEHHLFPTMPRHNYHKAAPL	1.32
LNFQIEHHLFPTMPRHNYHKCAPL	2.38
LNFQIEHHLFPTMPRHNYHKMAPL	2.5
LNFQIEHHLFPTMPRHNYHKYAPL	1.94
LNFQIEHHLFPTMPRHNYHKHAPL	1.92
LNFQIEHHLFPTMPRHNYHKNAPL	1.58
LNFQIEHHLFPTWPRHNYHKVAPL	2.66
LNFQIEHHLFPTSPRHNYHKVAPL	2.59
LNFQIEHHLFPTNPRHNYHKVAPL	1.91
LNFQIEHHLFPTRPRHNYHKVAPL	1.4
LNFQIEHHLFPTVPRHNYHKVAPL	2.6
LNFQIEHHLFPTAPRHNYHKVAPL	2.02
LNFQIEHHLFPTMPRHPYHKVAPL	2.71
LNFQIEHHLFPTMPRHRYHKVAPL	2.48
LNFQIEHHLFPTMPRHAYHKVAPL	1.98
LNFQIEHHLFPTMPRHTYHKVAPL	2.19
LNFQIEHHLFPTMPRHVYHKVAPL	1.43
LNFQIEHHLFPTMPRHQYHKVAPL	2.33
LNFQIEHHLFPTMPRHCYHKVAPL	3.44
